Experimental findings from IntAct's records for PubMed 15169888 are described below.

B1: Nuclear factor NF-kappa-B p105 subunit (Homo sapiens), P19838-1 (parent)
chain: MAEDDPYLGRPEQMFHLDPSLTHTIFNPEVFQPQMALPTDGPYLQILEQPKQRGFRFRYVCEGPSHGGLPGASSEKNKKSYPQVKICNYVGPAKVIVQLVTNGKNIHLHAHSLVGKHCEDGICTVTAGPKDMVVGFANLGILHVTKKKVFETLEARMTEACIRGYNPGLLVHPDLAYLQAEGGGDRQLGDREKELIRQAALQQTKEMDLSVVRLMFTAFLPDSTGSFTRRLEPVVSDAIYDSKAPNASNLKIVRMDRTAGCVTGGEEIYLLCDKVQKDDIQIRFYEEEENGGVWEGFGDFSPTDVHRQFAIVFKTPKYKDINITKPASVFVQLRRKSDLETSEPKPFLYYPEIKDKEEVQRKRQKLMPNFSDSFGGGSGAGAGGGGMFGSGGGGGGTGSTGPGYSFPHYGFPTYGGITFHPGTTKSNAGMKHGTMDTESKKDPEGCDKSDDKNTVNLFGKVIETTEQDQEPSEATVGNGEVTLTYATGTKEESAGVQDNLFLEKAMQLAKRHANALFDYAVTGDVKMLLAVQRHLTAVQDENGDSVLHLAIIHLHSQLVRDLLEVTSGLISDDIINMRNDLYQTPLHLAVITKQEDVVEDLLRAGADLSLLDRLGNSVLHLAAKEGHDKVLSILLKHKKAALLLDHPNGDGLNAIHLAMMSNSLPCLLLLVAAGADVNAQEQKSGRTALHLAVEHDNISLAGCLLLEGDAHVDSTTYDGTTPLHIAAGRGSTRLAALLKAAGADPLVENFEPLYDLDDSWENAGEDEGVVPGTTPLDMATSWQVFDILNGKPYEPEFTSDDLLAQGDMKQLAEDVKLQLYKLLEIPDPDKNWATLAQKLGLGILNNAFRLSPAPSKTLMDNYEVSGGTVRELVEALRQMGYTEAIEVIQAASSPVKTTSQAHSLPLSPASTRQQIDELRDSDSVCDSGVETSFRKLSFTESLTSGASLLTLNKMPHDYGQEGPLEGKI
partner: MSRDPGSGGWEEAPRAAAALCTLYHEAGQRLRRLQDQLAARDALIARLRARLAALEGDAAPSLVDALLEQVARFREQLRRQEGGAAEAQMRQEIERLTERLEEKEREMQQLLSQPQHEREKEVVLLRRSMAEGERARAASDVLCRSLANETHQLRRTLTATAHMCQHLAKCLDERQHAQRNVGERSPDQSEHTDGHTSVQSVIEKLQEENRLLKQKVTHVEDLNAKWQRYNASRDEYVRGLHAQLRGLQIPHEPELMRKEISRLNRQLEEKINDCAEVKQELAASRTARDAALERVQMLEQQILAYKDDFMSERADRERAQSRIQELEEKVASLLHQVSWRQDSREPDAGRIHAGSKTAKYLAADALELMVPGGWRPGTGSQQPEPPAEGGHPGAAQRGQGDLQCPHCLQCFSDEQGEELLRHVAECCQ

Variants of B1 are the subject of the test. The settings on record: with tnip2_human TNIP2, Q8NFZ5.
For the variant L841A, the “effect of a mutation on the interaction” value is “disrupting interaction”.
